In the supplement of paper PMC10567573:

B1: ZNF511 (parent)
chain: EPLPVERDPAAGAAPFRFVARPVR
B2: FAM189A2 (parent)
chain: CALNALTTTVCLVAAALRYLQIFA

Variants of: B1
Assay: protein stability index of a GFP-peptide fusion (GPS, HEK-293T) (PSI 1-6); higher = more stable
Conditions: c terminus: a fixed tail appended
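Note: lentivirally expressed fusions sorted by FACS into six bins by GFP to DsRed ratio, PSI derived from sequencing read proportions per bin multiplied by bin number.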

Variant	protein stability index
A13G	2.48
A13Y	2.02
A13K	2.71
A13H	2.43
A13D	3.26
A14M	2.42
A14W	2.47
A14Q	2.91
A14S	3.27
A14T	2.29
A14L	2.44
A14P	2.52
A14H	2.53
A14K	3.16
A14Y	1.96
A14C	2.2
A14V	1.51
A14G	2.55
A14I	1.31
A14D	4.71
A14N	2.69
A14E	4.11
A14R	2.68
L3M	2.28
L3W	2.64

Variant	protein stability index
L3G	2.23
L3F	2.01
L3K	2.4
L3E	2.97
L3I	2.45
L3T	2.3
L3D	2.1
L3V	2.23
L3S	3.09
L3C	2.16
L3Y	2.26
L3A	2.46
L3Q	2.64
L3N	2.76
L3H	2.56
L3R	3.45
A11M	1.71
A11C	2.18
A11D	2.33
A11Y	1.88
A11E	3
A11L	1.86
A11W	1.98
A11G	1.83
A11K	2.34

Variant	protein stability index
A11S	2.43
A11R	1.78
A11P	2.68
A11N	1.75
A11I	3.02
A11F	2.02
A11Q	2.12
A11T	2.08
A11V	1.42
A11H	2.61
E6C	3.25
E6N	2.5
E6P	3
E6T	2.6
E6R	3.13
E6W	1.56
E6M	2.52
E6H	2.44
E6V	3.22
E6Y	2.03
E6D	1.68
E6S	1.96
E6A	2.92
E6K	1.99
E6F	3.14

Variant	protein stability index
E6G	2.08
E6Q	2.52
E6I	2.34
E6L	2.98
A10T	2.15
A10D	2.46
A10H	1.87
A10V	1.38
A10Y	2.97
A10L	2.71
A10W	1.43
A10F	1.64
A10S	2.23
A10Q	2.11
A10R	2.55
A10G	2.17
A10M	2.11
A10P	2.41
A10E	2.99
A10N	3.07
A10K	1.72
A10I	2.44
A10C	1.88

Variants of: B2
Assay: as above
Conditions: c terminus: a fixed tail appended

Variant	protein stability index
T9N	2.79
L12E	1.51
L12P	3.76
A24I	2.19
A2M	2.77
A2N	3.43
A14H	4.41
A14M	3.17
A14W	1.93
Q21E	3.35
Q21L	3.19
Q21C	2.75
R18T	2.38
R18K	3.85
R18M	1.38
R18I	3.84
T7C	3.6
T7D	2.18
T7K	1.87
L17C	3.24
L17F	3.04
L17Q	2.57
L17P	2.91

Variant	protein stability index
L6K	1.77
L6M	4.19
L6I	1.47
L6A	2.83
L6F	1.13
Y19S	3.45
Y19A	3.25
Y19I	3.74
L3I	1.61
L3S	2
L3N	2.3
L3W	1.62
F23T	2.22
F23G	4.67
F23L	3.45
F23Y	2.85
L20V	1.72
L20R	3.02
V10F	1.53
V10I	2.3
V10M	1.98
T8K	1.93
I22A	1.99

Variant	protein stability index
I22M	3.76
I22S	3.43
C11I	4.44
C11Q	1.41
C11A	3.95
C11Y	3.58
C11F	3.1
A15G	2.9
A15R	2.41
A16E	3.27
A16S	2.97
A16P	2.79
V13N	2.88
V13A	2.99
V13S	2.06
V13P	2.88
V13T	3
A5L	2.77
A5E	3.02
A5F	2.29
C1L	1.59
C1A	2.05
C1R	3.14
